Measurements: patent US20260116991A1 (HAINAN SIMCERE ZAIMING PHARMACEUTICAL, published 2026)
Residue numbers refer to the chain shown, from its start. Values belong to the binder of their own block, whether it stands above or below them.

Tests used:
polypeptide GC3pep [1] = molecular target: T1, polypeptide GC3pep (human); experiment: ELISA, GC3pep coated, antibody 1 nM;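 note: bound antibody detected with an HRP-conjugated secondary antibody and TMB substrate, reaction stopped with HCl, after 2 h binding at 37 °C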
T1 construct: also called membrane proximal polypeptide GC3pep
T1 peptide: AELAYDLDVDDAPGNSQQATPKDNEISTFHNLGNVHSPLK
Description: (§1) The plate was sealed with a plastic film and incubated at 4° C. overnight, washed twice with PBS the next day, and a blocking solution [PBS+2% (w/w) BSA] was added for blocking at room temperature for 2 h. […] After incubation at 37° C. for 2 h, the plate was washed 3 times with PBS. A horseradish peroxidase (HRP)-labeled secondary antibody (purchased from Merck, Cat. No. AP113P) was added for incubation at 37° C. for 1 h, and the plate was washed 5 times with PBS. A TMB substrate was added at 50 μL/well for incubation at room temperature for 10 min, then a stop solution (1.0M HCl) was added at 50 μL/well.

polypeptide GC3pep [2] = molecular target: T1, polypeptide GC3pep; experiment: ELISA, GC3pep coated, antibody 10 nM;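 note: antibody bound to the coated peptide for 2 h at 37 °C, detected through an HRP-conjugated secondary antibody with TMB colour development stopped by acid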
polypeptide GC3pep [3] = molecular target: T1, polypeptide GC3pep; experiment: ELISA, GC3pep coated, antibody 0.1 nM;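 note: antibody allowed to bind the coated plate 2 h at 37 °C, then detected via HRP-conjugated secondary antibody and TMB development for 10 min, stopped with HCl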
polypeptide GC3pep [4] = molecular target: T1, polypeptide GC3pep; experiment: ELISA, GC3pep coated, antibody 100 nM;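 note: detection with an HRP-conjugated secondary antibody and TMB substrate, color reaction stopped with HCl before absorbance reading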
polypeptide GC3pep [5] = molecular target: T1, polypeptide GC3pep; experiment: ELISA, GC3pep coated, antibody 0.01 nM;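 note: bound antibody detected with an HRP-conjugated secondary antibody and TMB substrate, color reaction stopped with HCl before reading absorbance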
Description: as §1

polypeptide GC3pep [6] = molecular target: T1, polypeptide GC3pep; experiment: ELISA, GC3pep coated, antibody 0.001 nM
polypeptide GC3pep [7] = molecular target: T1, polypeptide GC3pep; experiment: ELISA, GC3pep coated, antibody 0.0001 nM

- OD450 nm (polypeptide GC3pep [1]): 0.04 OD450 nm
- OD450 nm (polypeptide GC3pep [2]): 0.07 OD450 nm
- OD450 nm (polypeptide GC3pep [3]): 0.05 OD450 nm
- OD450 nm (polypeptide GC3pep [4]): 0.06 OD450 nm
- OD450 nm (polypeptide GC3pep [5]): 0.05 OD450 nm
- OD450 nm (polypeptide GC3pep [6]): 0.05 OD450 nm
- OD450 nm (polypeptide GC3pep [7]): 0.04 OD450 nm
B2: F1.110.24 (antibody, human IgG1, kappa, V domains shown)
VH: EVKLVESGGGLVQPGGSLKLSCAASGFTFSDFYMYWVRQTPEKRLEWVAFISNGGGSTYYPDTVKGRFTISRDNVKNTLYLQMSRLKSEDTAMYYCARPDTSWFAYWGQGSLVTVSA
VL: DIQMTQTTSSLSASLGDRVTISCRASQDIDNYLNWYQQKPDGTVKVLISYTSRLHSGVPSRFSGSGSGTDYSLTISNLEQEDIATYFCQQGNTLPWTFGGGTKLEIKR
notes: human-murine chimeric antibody

- OD450 nm (polypeptide GC3pep [1]): 2.41 OD450 nm
- OD450 nm (polypeptide GC3pep [2]): 2.51 OD450 nm
- OD450 nm (polypeptide GC3pep [3]): 1.34 OD450 nm
- OD450 nm (polypeptide GC3pep [4]): 2.85 OD450 nm
- OD450 nm (polypeptide GC3pep [5]): 0.26 OD450 nm
- OD450 nm (polypeptide GC3pep [6]): 0.07 OD450 nm
- OD450 nm (polypeptide GC3pep [7]): 0.05 OD450 nm
B3: F2.55.11 (antibody, human IgG1, kappa, V domains shown)
VH: EVKLVESGGGLVKPGGSLKLSCAASGLTFSTCTMSWVRQTPAKRLEWVATISSGGGNTYYPDSVKGRFTISRDNARNTLYLQMSSLRSEDTAMYYCVRLYYDGSPYAMDYWGQGTSVTVSS
VL: B2 VL with D30S, Y32H, V46L, S49Y, G91D, N92S, T93K, L94P, W96P, G100S
notes: as for B2

- OD450 nm (polypeptide GC3pep [1]): 0.05 OD450 nm
- OD450 nm (polypeptide GC3pep [2]): 0.06 OD450 nm
- OD450 nm (polypeptide GC3pep [3]): 0.05 OD450 nm
- OD450 nm (polypeptide GC3pep [4]): 0.07 OD450 nm
- OD450 nm (polypeptide GC3pep [5]): 0.05 OD450 nm
- OD450 nm (polypeptide GC3pep [6]): 0.05 OD450 nm
- OD450 nm (polypeptide GC3pep [7]): 0.04 OD450 nm
B6: F1.83.6 (antibody, human IgG1, kappa, V domains shown)
VH: QVQLQQSGPELVKPGASVKISCKASGYAFSSSWMNWVKQRPGKGLEWIGRIYPGDGDTNYNGRFKGKATLTVDKSSSTAYMQLSSLTSEDSAVYFCARGGVFTMALDHWGQGTTLTVSS
VL: DIQMTQSPSSLSASLGGKVTITCKASQDINKYIAWYQHKPGKGPRLLIHYTSTLQPGIPSRFSGSGSGRDYSFSISNLEPEDIATYYCLQYDNLFTFGGGTKLEIKR
notes: as for B2

- OD450 nm (polypeptide GC3pep [1]): 0.08 OD450 nm
- OD450 nm (polypeptide GC3pep [2]): 0.05 OD450 nm
- OD450 nm (polypeptide GC3pep [3]): 0.05 OD450 nm
- OD450 nm (polypeptide GC3pep [4]): 0.1 OD450 nm
- OD450 nm (polypeptide GC3pep [5]): 0.04 OD450 nm
- OD450 nm (polypeptide GC3pep [6]): 0.05 OD450 nm
- OD450 nm (polypeptide GC3pep [7]): 0.05 OD450 nm
B7: F1.115.8 (antibody, human IgG1, kappa, V domains shown)
VH: EVQLQQSGPELVKPGASVKMSCKASGYTFTEYYMHWVKQSHGKSLEWIGYIYPNNGGNGYNQKFKGKATLTVDKSSSTAYMGLRSLTSEDSAVYYCVRGYYSNWYFDVWGTGTTVTVSS
VL: DVLMTQTPLSLPVSLGDQASISCRSSQSIVHSNGKTYLEWYLQKPGQSPKLLIYKVSNRFSGVPDRFSGSGSGTDFTLKISRVEAEDLGVYYCFQGSHVPFTFGSGTKLEIKR
notes: as for B2

The next lines start with the binder.

B1: F1.118.4 (antibody, human IgG1, kappa, V domains shown)
VH: QVQLQQSGAELAKPGASVKLSCKASGYSFTSYWIHWVKQRPGQGLEWIGYINPSSGYTKYNQKFKDKATLTADKSSSTAYMQLSSLTYEDSAVYYCARFGSSSFYFDYWGQGTTLTVSS
VL: DIVLTQSPASLAVSLGQRATISCRASQSVSSSSYSYMHWYQQKPGQPPKLLIKYASNLDSGVPARFSGSGSGTDFTLNIHPVEEEDTATYYCQHSWEIPAFGGGTKLEIKR
notes: as for B2
- OD450 nm (polypeptide GC3pep [1]): 0.04 OD450 nm
- OD450 nm (polypeptide GC3pep [2]): 0.05 OD450 nm
- OD450 nm (polypeptide GC3pep [3]): 0.04 OD450 nm
- OD450 nm (polypeptide GC3pep [4]): 0.06 OD450 nm
- OD450 nm (polypeptide GC3pep [5]): 0.04 OD450 nm
- OD450 nm (polypeptide GC3pep [6]): 0.04 OD450 nm
- OD450 nm (polypeptide GC3pep [7]): 0.05 OD450 nm

B4: F1.62.9 (antibody, human IgG1, kappa, V domains shown)
VH: QVQLQQSDAELVKPGASVKISCKVSGYIFTDHTIHWMKQRPEQGLEWIGYIYPRDGSIKYNENFKGKATLTADKSSSATYMQLNSLTSEDSAVYFCARPIYYDYAYYFDYWGQGTTLTVSS
VL: DVVMTQSPLSLPVSLGDQASISCRSRQSLVHSNGNTYLHWYLQKPGQSPKVLIYKVSNRFSGVPDRFSGSGSGTDFTLKISRVEAEDLGVYFCSQSTHVPYTFGGGTKLEIKR
notes: as for B2
- OD450 nm (polypeptide GC3pep [1]): 0.05 OD450 nm
- OD450 nm (polypeptide GC3pep [2]): 0.07 OD450 nm
- OD450 nm (polypeptide GC3pep [3]): 0.05 OD450 nm
- OD450 nm (polypeptide GC3pep [4]): 0.13 OD450 nm
- OD450 nm (polypeptide GC3pep [5]): 0.05 OD450 nm
- OD450 nm (polypeptide GC3pep [6]): 0.05 OD450 nm
- OD450 nm (polypeptide GC3pep [7]): 0.05 OD450 nm

B5: F1.3.9 (antibody, human IgG1, kappa, V domains shown)
VH: QVQLQQPGTELVKPGASVKLSCKASGYTFTSYWIHWVKQRPGQGLEWIGNINPPNAGTNYNEKFKSKATLTVDKSSSTAYMQLSSLTSEDSAVYYCARGRWLLHDYWGQGTTLTVSS
VL: DIQMTQSPASLSISVGETVTITCRASENIYSNLAWYQQKQGKSPQLLVYGTKNLAEGVPSRFSGSGSGTQYSLKINSLQSEDFGNYYCQHFWGTPYTFGGGTKLEILR
notes: as for B2
- OD450 nm (polypeptide GC3pep [1]): 0.05 OD450 nm
- OD450 nm (polypeptide GC3pep [2]): 0.06 OD450 nm
- OD450 nm (polypeptide GC3pep [3]): 0.05 OD450 nm
- OD450 nm (polypeptide GC3pep [4]): 0.13 OD450 nm
- OD450 nm (polypeptide GC3pep [5]): 0.05 OD450 nm
- OD450 nm (polypeptide GC3pep [6]): 0.05 OD450 nm
- OD450 nm (polypeptide GC3pep [7]): 0.07 OD450 nm

B8: F1.9.19 (antibody, human IgG1, kappa, V domains shown)
VH: DVQLQESGPGLVKPSQSLSLTCSVTGYSITSGYYWNWIRQFPGNRLEWMAYISYDGINNYNPSLKNRISIARDTSTNQFFLKLNSVTSEDTATYYCATTTEVALFDHWGQGTTLTVSS
VL: B7 VL with M4L, S28N, S32G, K35N, Y41F, V90L, G96A, F101W, S105G
notes: as for B2
- OD450 nm (polypeptide GC3pep [1]): 0.06 OD450 nm
- OD450 nm (polypeptide GC3pep [2]): 0.06 OD450 nm
- OD450 nm (polypeptide GC3pep [3]): 0.04 OD450 nm
- OD450 nm (polypeptide GC3pep [4]): 0.08 OD450 nm
- OD450 nm (polypeptide GC3pep [5]): 0.05 OD450 nm
- OD450 nm (polypeptide GC3pep [6]): 0.07 OD450 nm
- OD450 nm (polypeptide GC3pep [7]): 0.05 OD450 nm
